Reference: patent publication US20250281538A1 (US Dept. of Health and Human Services, published 2025)

B1: ART-hCT3-1-hCT3-1 AbTCR+CSR (other)
chain 1: DVVMTQSPLSLPVTPGEPASISCRASSSVNYIYWYLQKPGQSPQLWIYYTSNLAPGVPDRFSGSGSGTDFTLKISRVEAEDVGVYYCQQFSSSPSTFGQGTKLEIKRSRGGGGSGGGGSGGGGSLEMAQVQLVQSGAEVKKPGASVKVSCKASRFTFTDYNIHWVRQAPGQGLEWIGYINPNNGDIFYKQKFNGRVTLTADKSTSTAYMELSSLTSEDTAVYYCVRSSNIRYTFDRFFDVWGQGTLVTVSSEQKLISEEDLAAATGAPPLGTQPDCNPTPENGEAPASTSPTQSLLVDSQASKTLPIPTSAPVALSSTGKPVLDAGPVLFWVILVLVVVVGSSAFLLCHRRACRKRIRQKLHLCYPVQTSQPKLELVDSRPRRSSTQLRSGASVTEPVAEERGLMSQPLMETCHSVGAAYLESLPLQDASPAGGPSSPRDLPEPRVSTEHTNNKIEKIYIMKADTVIVGTVKAELPEGRGLAGPAEPELEEELEADHTPHYPEQETEPPLGSCSDVMLSVEEEGKEDPLPTAASGK
chain 2: QVQLVQSGAEVKKPGASVKVSCKASRFTFTDYNIHWVRQAPGQGLEWIGYINPNNGDIFYKQKFNGRVTLTADKSTSTAYMELSSLTSEDTAVYYCVRSSNIRYTFDRFFDVWGQGTLVTVSSASTKGPSVFPLAPSSKSTSGGTAALGCLVKDYFPEPVTVSWNSGALTSGVHTFPAVLQSSGLYSLSSVVTVPSSSLGTQTYICNVNHKPSNTKVDKRVEPKSCEVKTDSTDHVKPKETENTKQPSKSCHKPKAIVHTEKVNMMSLTVLGLRMLFAKTVAVNFLLTAKLFFL
chain 3: DVVMTQSPLSLPVTPGEPASISCRASSSVNYIYWYLQKPGQSPQLWIYYTSNLAPGVPDRFSGSGSGTDFTLKISRVEAEDVGVYYCQQFSSSPSTFGQGTKLEIKRTVAAPSVFIFPPSDEQLKSGTASVVCLLNNFYPREAKVQWKVDNALQSGNSQESVTEQDSKDSTYSLSSTLTLSKADYEKHKVYACEVTHQGLSSPVTKSFNRGECPIKTDVITMDPKDNCSKDANDTLLLQLTNTSAYYMYLLLLLKSVVYFAIITCCLLRRTAFCCNGEKS
notes: also called ART-hCT3-hCT3; hCT3 AbTCR+CSR
B2: ART-CT3-CT3 AbTCR+CSR (other)
chain 1: ENVLTQSPAIMSASLGEKVTMSCRASSSVNYIYWYQQKSDASPKLWIYYTSNLAPGVPARFSGSGSGNSYSLTISSMEGEDAATYYCQQFSSSPSTFGTGTKLELKRSRGGGGSGGGGSGGGGSLEMAEVQLQQSGPELVKPGASVKMSCKASRFTFTDYNIHWVKQSPGKTLEWIGYINPNNGDIFYKQKFNGKATLTINKSSNTAYMELRSLTSEDSAVYYCVRSSNIRYTFDRFFDVWGTGTTVTVSSEQKLISEEDLAAATGAPPLGTQPDCNPTPENGEAPASTSPTQSLLVDSQASKTLPIPTSAPVALSSTGKPVLDAGPVLFWVILVLVVVVGSSAFLLCHRRACRKRIRQKLHLCYPVQTSQPKLELVDSRPRRSSTQLRSGASVTEPVAEERGLMSQPLMETCHSVGAAYLESLPLQDASPAGGPSSPRDLPEPRVSTEHTNNKIEKIYIMKADTVIVGTVKAELPEGRGLAGPAEPELEEELEADHTPHYPEQETEPPLGSCSDVMLSVEEEGKEDPLPTAASGK
chain 2: EVQLQQSGPELVKPGASVKMSCKASRFTFTDYNIHWVKQSPGKTLEWIGYINPNNGDIFYKQKFNGKATLTINKSSNTAYMELRSLTSEDSAVYYCVRSSNIRYTFDRFFDVWGTGTTVTVSSASTKGPSVFPLAPSSKSTSGGTAALGCLVKDYFPEPVTVSWNSGALTSGVHTFPAVLQSSGLYSLSSVVTVPSSSLGTQTYICNVNHKPSNTKVDKRVEPKSCEVKTDSTDHVKPKETENTKQPSKSCHKPKAIVHTEKVNMMSLTVLGLRMLFAKTVAVNFLLTAKLFFL
chain 3: ENVLTQSPAIMSASLGEKVTMSCRASSSVNYIYWYQQKSDASPKLWIYYTSNLAPGVPARFSGSGSGNSYSLTISSMEGEDAATYYCQQFSSSPSTFGTGTKLELKRTVAAPSVFIFPPSDEQLKSGTASVVCLLNNFYPREAKVQWKVDNALQSGNSQESVTEQDSKDSTYSLSSTLTLSKADYEKHKVYACEVTHQGLSSPVTKSFNRGECPIKTDVITMDPKDNCSKDANDTLLLQLTNTSAYYMYLLLLLKSVVYFAIITCCLLRRTAFCCNGEKS
notes: AbTCR heterodimer and CSR are expressed together on one cell
B3: ART-HN3-HN3 AbTCR+CSR (protein)
chain 1: QVQLVQSGGGLVQPGGSLRLSCAASYFDFDSYEMSWVRQAPGKGLEWIGSIYHSGSTYYNPSLKSRVTISRDNSKNTLYLQMNTLRAEDTATYYCARVNMDRFDYWGQGTLVTVSSEQKLISEEDLAAATGAPPLGTQPDCNPTPENGEAPASTSPTQSLLVDSQASKTLPIPTSAPVALSSTGKPVLDAGPVLFWVILVLVVVVGSSAFLLCHRRACRKRIRQKLHLCYPVQTSQPKLELVDSRPRRSSTQLRSGASVTEPVAEERGLMSQPLMETCHSVGAAYLESLPLQDASPAGGPSSPRDLPEPRVSTEHTNNKIEKIYIMKADTVIVGTVKAELPEGRGLAGPAEPELEEELEADHTPHYPEQETEPPLGSCSDVMLSVEEEGKEDPLPTAASGK
chain 2: QVQLVQSGGGLVQPGGSLRLSCAASYFDFDSYEMSWVRQAPGKGLEWIGSIYHSGSTYYNPSLKSRVTISRDNSKNTLYLQMNTLRAEDTATYYCARVNMDRFDYWGQGTLVTVSSASTKGPSVFPLAPSSKSTSGGTAALGCLVKDYFPEPVTVSWNSGALTSGVHTFPAVLQSSGLYSLSSVVTVPSSSLGTQTYICNVNHKPSNTKVDKRVEPKSCEVKTDSTDHVKPKETENTKQPSKSCHKPKAIVHTEKVNMMSLTVLGLRMLFAKTVAVNFLLTAKLFFL
chain 3: QVQLVQSGGGLVQPGGSLRLSCAASYFDFDSYEMSWVRQAPGKGLEWIGSIYHSGSTYYNPSLKSRVTISRDNSKNTLYLQMNTLRAEDTATYYCARVNMDRFDYWGQGTLVTVSSRTVAAPSVFIFPPSDEQLKSGTASVVCLLNNFYPREAKVQWKVDNALQSGNSQESVTEQDSKDSTYSLSSTLTLSKADYEKHKVYACEVTHQGLSSPVTKSFNRGECPIKTDVITMDPKDNCSKDANDTLLLQLTNTSAYYMYLLLLLKSVVYFAIITCCLLRRTAFCCNGEKS
B4: CT3 CAR (CT3-CD28HTM) (other)
VH: EVQLQQSGPELVKPGASVKMSCKASRFTFTDYNIHWVKQSPGKTLEWIGYINPNNGDIFYKQKFNGKATLTINKSSNTAYMELRSLTSEDSAVYYCVRSSNIRYTFDRFFDVWGTGTTVTVSS
VL: ENVLTQSPAIMSASLGEKVTMSCRASSSVNYIYWYQQKSDASPKLWIYYTSNLAPGVPARFSGSGSGNSYSLTISSMEGEDAATYYCQQFSSSPSTFGTGTKLELK
notes: Only the CT3 VH and VL are tied to the antibody
B5: hCT3 CAR (hCT3-1 CD28HTM) (other)
VH: QVQLVQSGAEVKKPGASVKVSCKASRFTFTDYNIHWVRQAPGQGLEWIGYINPNNGDIFYKQKFNGRVTLTADKSTSTAYMELSSLTSEDTAVYYCVRSSNIRYTFDRFFDVWGQGTLVTVSS
VL: DVVMTQSPLSLPVTPGEPASISCRASSSVNYIYWYLQKPGQSPQLWIYYTSNLAPGVPDRFSGSGSGTDFTLKISRVEAEDVGVYYCQQFSSSPSTFGQGTKLEIK
notes: only hCT3-1 VH and VL are tied to the antibody; also called hCT3-CD28HTM

How the values were obtained:
GPC2 antigen = target: T1, GPC2 antigen (UniProt Q8N158 24-553, limits assumed); assay: flow cytometry of Jurkat T cells expressing the construct, GPC2 binding read in the APC channel; GPC2 concentration not given
T1 construct: also called glypican-2
T1 sequence (looked up): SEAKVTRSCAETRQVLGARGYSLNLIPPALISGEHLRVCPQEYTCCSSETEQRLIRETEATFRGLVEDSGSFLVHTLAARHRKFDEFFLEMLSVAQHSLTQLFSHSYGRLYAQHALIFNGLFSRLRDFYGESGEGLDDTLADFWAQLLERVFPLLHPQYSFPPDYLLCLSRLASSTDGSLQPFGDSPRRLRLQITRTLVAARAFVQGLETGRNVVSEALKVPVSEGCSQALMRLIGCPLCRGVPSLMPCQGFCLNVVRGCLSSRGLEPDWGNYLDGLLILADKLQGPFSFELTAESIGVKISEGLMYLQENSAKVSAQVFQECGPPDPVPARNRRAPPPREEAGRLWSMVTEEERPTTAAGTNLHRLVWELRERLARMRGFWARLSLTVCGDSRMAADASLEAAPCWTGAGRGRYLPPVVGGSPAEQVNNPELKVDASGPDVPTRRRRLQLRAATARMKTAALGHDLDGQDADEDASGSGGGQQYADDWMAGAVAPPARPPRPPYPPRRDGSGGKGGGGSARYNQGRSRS
Excerpt: Shown in FIG. 12 is a flow cytometric analysis of Jurkat T cells expressing CT3 and hCT3 CARs (CT3-CD28HTM and hCT3-1 CD28HTM, respectively) and AbTCRs+CSRs (ART-CT3-CT3 and ART-hCT3-1-hCT3-1, respectively). T cells expressing each of the constructs were capable of binding to GPC2 antigen. Mock T cells not expressing a CAR or AbTCR+CSR were included as a negative control.

GPC3 protein [1] = target: GPC3 protein (UniProt P51654); assay: flow cytometry of Jurkat T cells expressing the construct, stained with 2.3ng/ml (0.04nM) GPC3-hFc
GPC3 protein [2] = target: GPC3 protein (UniProt P51654); assay: flow cytometry of Jurkat T cells expressing the construct, stained with 4.6ng/ml (0.08nM) GPC3-hFc

Binder | percent of cells in the GPC2-binding-positive gate (GPC2 antigen) | percent of cells in the binding-positive gate (GPC3 protein [1]) | percent of cells in the binding-positive gate (GPC3 protein [2])
B1 | 62.4% | – | –
B2 | 57.3% | – | –
B3 | – | 56.9% | 70.6%
B4 | 41.9% | – | –
B5 | 26.5% | – | –
